Assay results published in PMC11589140 (2024).

B1: HA-tagged RUNX1T1, wild type [human] / FLAG-tagged GFI-1 [not stated] (parent complex)
chain 1: MISVKRNTWRALSLVIGDCRKKGNFEYCQDRTEKHSTMPDSPVDVKTQSRLTPPTMPPPPTTQGAPRTSSFTPTTLTNGTSHSPTALNGAPSPPNGFSNGPSSSSSSSLANQQLPPACGARQLSKLKRFLTTLQQFGNDISPEIGERVRTLVLGLVNSTLTIEEFHSKLQEATNFPLRPFVIPFLKANLPLLQRELLHCARLAKQNPAQYLAQHEQLLLDASTTSPVDSSELLLDVNENGKRRTPDRTKENGFDREPLHSEHPSKRPCTISPGQRYSPNNGLSYQPNGLPHPTPPPPQHYRLDDMAIAHHYRDSYRHPSHRDLRDRNRPMGLHGTRQEEMIDHRLTDREWAEEWKHLDHLLNCIMDMVEKTRRSLTVLRRCQEADREELNYWIRRYSDAEDLKKGGGSSSSHSRQQSPVNPDPVALDAHREFLHRPASGYVPEEIWKKAEEAVNEVKRQAMTELQKAVSEAERKAHDMITTERAKMERTVAEAKRQAAEDALAVINQQEDSSESCWNCGRKASETCSGCNTARYCGSFCQHKDWEKHHHICGQTLQAQQQGDTPAVSSSVTPNSGAGSPMDTPPAATPRSTTPGTPSTIETTPR
chain 2: not shown
B2: HA-tagged RUNX1T1, wild type [human] / FLAG-tagged Sin3A [not stated] (parent complex)
chain 1: B1 chain 1
chain 2: MKRRLDDQESPVYAAQQRRIPGSTEAFPHQHRVLAPAPPVYEAVSETMQSATGIQYSVTPSYQVSAMPQSSGSHGPAIAAVHSSHHHPTAVQPHGGQVVQSHAHPAPPVAPVQGQQQFQRLKVEDALSYLDQVKLQFGSQPQVYNDFLDIMKEFKSQSIDTPGVISRVSQLFKGHPDLIMGFNTFLPPGYKIEVQTNDMVNVTTPGQVHQIPTHGIQPQPQPPPQHPSQPSAQSAPAPAQPAPQPPPAKVSKPSQLQAHTPASQQTPPLPPYASPRSPPVQPHTPVTISLGTAPSLQNNQPVEFNHAINYVNKIKNRFQGQPDIYKAFLEILHTYQKEQRNAKEAGGNYTPALTEQEVYAQVARLFKNQEDLLSEFGQFLPDANSSVLLSKTTAEKVDSVRNDHGGTVKKPQLNNKPQRPSQNGCQIRRHPTGTTPPVKKKPKLLNLKDSSMADASKHGGGTESLFFDKVRKALRSAEAYENFLRCLVIFNQEVISRAELVQLVSPFLGKFPELFNWFKNFLGYKESVHLETYPKERATEGIAMEIDYASCKRLGSSYRALPKSYQQPKCTGRTPLCKEVLNDTWVSFPSWSEDSTFVSSKKTQYEEHIYRCEDERFELDVVLETNLATIRVLEAIQKKLSRLSAEEQAKFRLDNTLGGTSEVIHRKALQRIYADKAADIIDGLRKNPSIAVPIVLKRLKMKEEEWREAQRGFNKVWREQNEKYYLKSLDHQGINFKQNDTKVLRSKSLLNEIESIYDERQEQATEENAGVPVGPHLSLAYEDKQILEDAAALIIHHVKRQTGIQKEDKYKIKQIMHHFIPDLLFAQRGDLSDVEEEEEEEMDVDEATGAVKKHNGVGGSPPKSKLLFSNTAAQKLRGMDEVYNLFYVNNNWYIFMRLHQILCLRLLRICSQAERQIEEENREREWEREVLGIKRDKSDSPAIQLRLKEPMDVDVEDYYPAFLDMVRSLLDGNIDSSQYEDSLREMFTIHAYIAFTMDKLIQSIVRQLQHIVSDEICVQVTDLYLAENNNGATGGQLNTQNSRSLLESTYQRKAEQLMSDENCFKLMFIQSQGQVQLTIELLDTEEENSDDPVEAERWSDYVERYMNSDTTSPELREHLAQKPVFLPRNLRRIRKCQRGREQQEKEGKEGNSKKTMENVDSLDKLECRFKLNSYKMVYVIKSEDYMYRRTALLRAHQSHERVSKRLHQRFQAWVDKWTKEHVPREMAAETSKWLMGEGLEGLVPCTTTCDTETLHFVSINKYRVKYGTVFKAP

Variants of: B1
Experiment: co-immunoprecipitation (IP: HA) with densitometry quantification; HA-tagged RUNX1T1 and FLAG-tagged interactor co-expressed in HEK-293 cells; parent: 1; read off a plot

ratio to parent | Variant
~1.6 | chain 1 E146K
~1.6 | chain 1 E163K

Variants of: B2
Experiment: as above

ratio to parent | Variant
~0.57 | chain 1 E163K
~2.6 | chain 1 E146K
